# Results: patent US20100041068A1, “DEEPLY QUENCHED ENZYME SENSORS AND BINDING SENSORS” (priority 2006, published 2010)
# Non-standard residues stand in square brackets, D forms with d. Primed or numbered codes have the meaning given here. No end group written: not given here. *: point of attachment. Acetyl(1-pyrenyl) = O=C(Cc1ccc2ccc3cccc4ccc1c2c34)*; Aoc′ = aminooctanoic acid linker; pS = N[C@@H](COP(=O)(O)O)C(=O)O; Abu = CC[C@H](N)C(=O)O; AEEA = NCCOCCOCC(=O)O; Ava = NCCCCC(=O)O; βAla = NCCC(=O)O
# T1: 14-3-3τ (phospho-Ser binding domain) (UniProt P27348 1-245)
# T1 sequence (looked up): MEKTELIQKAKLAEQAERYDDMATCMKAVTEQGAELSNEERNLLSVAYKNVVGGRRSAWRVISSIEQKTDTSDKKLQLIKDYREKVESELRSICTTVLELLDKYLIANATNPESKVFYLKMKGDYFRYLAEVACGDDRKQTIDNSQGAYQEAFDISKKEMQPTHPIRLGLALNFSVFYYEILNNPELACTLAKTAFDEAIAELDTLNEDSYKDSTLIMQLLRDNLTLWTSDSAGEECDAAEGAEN
# Key:
# peptide P2 = experiment: Apparent KD of lead quencher dyes with peptide P2 (quenching of pyrene fluorescence); format: binding; details: 5 μM pyrene-labeled P2 peptide, dye 0.5-500 μM, 100 mM Tris HCl pH 75, inner filter corrected
# Description: KD values were acquired for the set of the ten lead quenchers with peptide P2, in order to obtain a target range for the quencher:peptide ratios to be employed in the subsequent assays (vide infra). These apparent KD values were determined using the quenching of pyrene fluorescence as a barometer of peptide/quencher complex stability. […] An inner filter effect (at high dye concentrations) was corrected as previously described^8.
# Acquisition of Apparent KD Values for Lead Quencher Dyes with Peptide P2 (FIG. 2).
# [1] = molecular target: phosphorylated P5 peptide AcDap(Pyr)RTGRRFS(PO3^2−)YP-amide; experiment: Apparent KD of Rose Bengal with phosphorylated P5 peptide; format: binding
# peptide P5 = experiment: Apparent KD of lead quencher/peptide pair, Rose Bengal with peptide P5; format: binding
# [2] = molecular target: T2, cAMP-dependent protein kinase (PKA) (Mus musculus, UniProt P05132); experiment: Control: phosphorylation-induced change in fluorescence of pyrene-labeled peptides in the absence of quenching dye; format: biochemical, murine; parameters: made in house; details: 5 μM peptide, 10 nM PKA, 10 μM 14-3-3τ, 1 mM ATP
# Description: 2 Identification of the lead pyrene-peptide/quencher pair. The eleven pyrene-substituted peptides (P1-P11 at 5 μM) were incubated with a 5-, 10-, 25-, and 50-fold molar excess of each of the ten lead quenchers in the presence of PKA, ATP, and the phospho-Ser binding domain 14-3-3τ. Several control experiments were performed, including conducting the assay in the absence of quenching agent. Under the latter conditions, only small enhancements in fluorescence (0-64%) were observed (Supporting Information). […] Consequently, the background was subtracted from all readings to establish a baseline upon which changes in fluorescence intensity could be quantified (Supporting Information).
# Screening of Lead Quenching Dyes 1-10 with […]. […] The concentrations per well were: 10 nM PKA, 5 μM peptide, 10 μM 14-3-3τ, 1 mM ATP, 5 mM MgCl2, 2 mM DTT, and 25 μM, 50 μM, […] each of 10 different lead dyes in 50 mM Tris at pH 7.5 buffer. The HTS 7000 Bio Assay Reader was set in kinetic mode to monitor the progress of reaction (340 nm excitation filter, […] emission filter, 100 μs and 5 flashes).
# [3] = molecular target: T2, cAMP-dependent protein kinase (PKA); experiment: PKA inhibitor IC50, standard radioactive ATP method; format: biochemical
# [4] = molecular target: T2, cAMP-dependent protein kinase (PKA); experiment: PKA inhibitor IC50, Deep Quench method (Ponceau S/peptide P2, 14-3-3τ); format: biochemical, murine; parameters: made in house; details: [ATP]=1 mM, 1 μM P2, 60 μM Ponceau S, 10 nM PKA
# Description: This step was used to adjust for inter-assay variability and to verify that no significant drop in enzyme activity occurs over the course of the determinations. Subsequently, inhibitor was added at different concentrations. […] Fractional velocities (v/v0) were plotted against inhibitor concentration [I] and fit using the Sigma Plot version 8.02 software's four-parameter logistic nonlinear regression analysis.
# [5] = molecular target: 14-3-3τ (phospho-Ser binding domain) (UniProt P27348); experiment: cell-based or functional assay
# [6] = molecular target: T1, 14-3-3τ (phospho-Ser binding domain); experiment: cell-based or functional assay
Kd (peptide P2) [µM],Molecule,% Fluorescence Enhancement [2] [%],also measured
2.8 ± 0.8,"Cc1cc(-c2ccc(/N=N/c3ccc4c(S(=O)(=O)O)cc(S(=O)(=O)O)c(N)c4c3O)c(C)c2)ccc1/N=N/c1ccc2c(S(=O)(=O)O)cc(S(=O)(=O)O)c(N)c2c1O [Peptide D3, Evans Blue]",–,–
14.3 ± 3.3,"O=[N+]([O-])c1ccc2c(N=Nc3ccc4ccccc4c3O)c(O)cc(S(=O)(=O)O)c2c1 [Peptide D18, Eriochrome Black T]",–,–
11.2 ± 2.7,"O=S(=O)(O)c1ccc(/N=N/c2ccc(/N=N/c3c(O)c(S(=O)(=O)O)cc4cc(S(=O)(=O)O)ccc34)c(S(=O)(=O)O)c2)cc1 [Peptide D42, Ponceau S]",–,–
7.5 ± 1.6,"O=C(O)c1c(Cl)c(Cl)c(Cl)c(Cl)c1-c1c2cc(I)c(=O)c(I)c-2oc2c(I)c(O)c(I)cc12 [Peptide D43, Rose Bengal]",–,Kd [1]: 0.21 ± 0.04 µM; Kd (peptide P5; Rose Bengal with unphosphorylated AcDap(Pyr)RTGRRFSYP-amide (P5)): 0.4 ± 0.03 µM; Kd (peptide P5; Rose Bengal with unphosphorylated peptide P5): 0.4 ± 0.03 µM
15 ± 2.1,"O=C(O)c1nn(-c2ccc(S(=O)(=O)O)cc2)c(O)c1N=Nc1ccc(S(=O)(=O)O)cc1 [Peptide D47, Tartrazine]",–,–
11.9 ± 3.6,"Cc1cc(-c2ccc(/N=N/c3c(S(=O)(=O)O)cc4cc(S(=O)(=O)O)cc(N)c4c3O)c(C)c2)ccc1/N=N/c1c(S(=O)(=O)O)cc2cc(S(=O)(=O)O)cc(N)c2c1O [Peptide D48, Trypan Blue]",–,–
–,Ac-Gly-Arg-Dap(Pyr)-Gly-Arg-Arg-Phe-Ser-Tyr-Pro-amide [Peptide P4],40,–
–,Ac-Gly-Arg-Thr-Dap(Pyr)-Arg-Arg-Phe-Ser-Tyr-Pro-amide [Peptide P3],19,–
–,Ac-Gly-Arg-Thr-Gly-Arg-Arg-Phe-Ser-Dap(Pyr)-Pro-amide [Peptide P1],0,–
–,GRTGRRNAI-NH2 (C-terminus assumed) [PKI 14-22],–,IC50 [3]: 1.6 ± 0.2 µM; IC50 [4]: 1.1 ± 0.1 µM
–,Pyr-Abu-Gly-Arg-Thr-Gly-Arg-Arg-Phe-Ser-Tyr-Pro-amide ({Acetyl(1-pyrenyl)}-[Abu]GRTGRRFSYP-NH2; SMILES CC[C@H](NC(=O)Cc1ccc2ccc3cccc4ccc1c2c34)C(=O)NCC(=O)N[C@@H](CCCNC(=N)N)C(=O)N[C@H](C(=O)NCC(=O)N[C@@H](CCCNC(=N)N)C(=O)N[C@@H](CCCNC(=N)N)C(=O)N[C@@H](Cc1ccccc1)C(=O)N[C@@H](CO)C(=O)N[C@@H](Cc1ccc(O)cc1)C(=O)N1CCC[C@H]1C(N)=O)[C@@H](C)O) [Peptide P7],47,–
–,Pyr-Aoc-Gly-Arg-Thr-Gly-Arg-Arg-Phe-Ser-Tyr-Pro-amide ({Acetyl(1-pyrenyl)-Aoc′}-GRTGRRFSYP-NH2) [Peptide P10],39,–
–,Pyr-Ava-Gly-Arg-Thr-Gly-Arg-Arg-Phe-Ser-Tyr-Pro-amide ({Acetyl(1-pyrenyl)-Ava}-GRTGRRFSYP-NH2; SMILES C[C@@H](O)[C@H](NC(=O)[C@H](CCCNC(=N)N)NC(=O)CNC(=O)CCCCNC(=O)Cc1ccc2ccc3cccc4ccc1c2c34)C(=O)NCC(=O)N[C@@H](CCCNC(=N)N)C(=O)N[C@@H](CCCNC(=N)N)C(=O)N[C@@H](Cc1ccccc1)C(=O)N[C@@H](CO)C(=O)N[C@@H](Cc1ccc(O)cc1)C(=O)N1CCC[C@H]1C(N)=O) [Peptide P8],31,–
–,Pyr-BAla-Gly-Arg-Thr-Gly-Arg-Arg-Phe-Ser-Tyr-Pro-amide ({Acetyl(1-pyrenyl)}-[βAla]GRTGRRFSYP-NH2; SMILES C[C@@H](O)[C@H](NC(=O)[C@H](CCCNC(=N)N)NC(=O)CNC(=O)CCNC(=O)Cc1ccc2ccc3cccc4ccc1c2c34)C(=O)NCC(=O)N[C@@H](CCCNC(=N)N)C(=O)N[C@@H](CCCNC(=N)N)C(=O)N[C@@H](Cc1ccccc1)C(=O)N[C@@H](CO)C(=O)N[C@@H](Cc1ccc(O)cc1)C(=O)N1CCC[C@H]1C(N)=O) [Peptide P6],49,–
–,Pyr-miniPEG™-Gly-Arg-Thr-Gly-Arg-Arg-Phe-Ser-Tyr-Pro-amide ({Acetyl(1-pyrenyl)-AEEA}-GRTGRRFSYP-NH2; SMILES C[C@@H](O)[C@H](NC(=O)[C@H](CCCNC(=N)N)NC(=O)CNC(=O)COCCOCCNC(=O)Cc1ccc2ccc3cccc4ccc1c2c34)C(=O)NCC(=O)N[C@@H](CCCNC(=N)N)C(=O)N[C@@H](CCCNC(=N)N)C(=O)N[C@@H](Cc1ccccc1)C(=O)N[C@@H](CO)C(=O)N[C@@H](Cc1ccc(O)cc1)C(=O)N1CCC[C@H]1C(N)=O) [Peptide P11],38,–
–,"phosphorylated peptide P2, Ac-GRTGRRDap(Pyr)SYP-amide after phosphorylation of Ser by PKA",–,"% Fluorescence Enhancement (phosphorylation-induced, PKA + ATP + 14-3-3τ, no quenching dye) [5]: 51%; Fluorescence Change (phosphorylation-induced fold-change), P2/Ponceau S (1:50), plate reader - bottom read [5]: 7 fold; Fluorescence Change (phosphorylation-induced fold-change), P2/Ponceau S (1:50), plate reader - top read [5]: 15 fold; Fluorescence Change (phosphorylation-induced fold-change), P2/Ponceau S (1:50), spectrofluorimeter [5]: 21 fold"
–,"phosphorylated peptide P3, Ac-GRTDap(Pyr)RRFSYP-amide after phosphorylation of Ser by PKA",–,"% Fluorescence Enhancement (phosphorylation-induced, PKA + ATP + 14-3-3τ, no quenching dye) [5]: 19%"
–,"phosphorylated peptide P4, Ac-GRDap(Pyr)GRRFSYP-amide after phosphorylation of Ser by PKA",–,"% Fluorescence Enhancement (phosphorylation-induced, PKA + ATP + 14-3-3τ, no quenching dye) [5]: 40%"
–,"phosphorylated peptide P5, AcDap(Pyr)RTGRRFS(PO3^2-)YP-amide",–,"% Fluorescence Enhancement (phosphorylation-induced, PKA + ATP + 14-3-3τ, no quenching dye) [5]: 64%; Fluorescence Change (phosphorylation-induced fold-change), P5/Rose Bengal (1:5), plate reader - bottom read [5]: 8 fold; Fluorescence Change (phosphorylation-induced fold-change), P5/Rose Bengal (1:5), plate reader - top read [5]: 30 fold; Fluorescence Change (phosphorylation-induced fold-change), P5/Rose Bengal (1:5), spectrofluorimeter [5]: 64 fold"
–,"GRTGRRF[pS]YP (also: 7-diethylaminocoumarin-3-carboxylic acid label, site not given here) [coumarin-peptide P12 after phosphorylation]",–,"enhancement in fluorescence (16 µM P12, 10 µM 14-3-3, 30 µM Acid Green 27) [6]: 225 fold"

Molecule,Kd (peptide P2) [µM],% Fluorescence Enhancement [2] [%],also measured
"Nc1ccc(N=Nc2ccc(-c3ccc(N=Nc4c(S(=O)(=O)O)cc5cc(S(=O)(=O)O)c(N=Nc6ccccc6)c(O)c5c4N)cc3)cc2)c(N)c1 [Peptide D34, Chlorazol Black E]",7.7 ± 1.5,–,–
Reactive Blue 2 [Peptide D6],19.6 ± 3.4,–,–
